T1: CD300a antigen (12449-H08H, Sino Biological) (UniProt Q9UGN4 18-180)
T1 construct: Bought recombinant antigen
T1 sequence (looked up): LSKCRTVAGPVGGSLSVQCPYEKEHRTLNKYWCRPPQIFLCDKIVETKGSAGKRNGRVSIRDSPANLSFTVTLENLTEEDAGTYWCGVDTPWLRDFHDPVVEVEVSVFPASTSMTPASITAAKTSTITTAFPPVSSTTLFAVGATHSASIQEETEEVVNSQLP

T2: mouse CD300c antigen (mouse)
T2 sequence (A2A7V7 whole entry, looked up): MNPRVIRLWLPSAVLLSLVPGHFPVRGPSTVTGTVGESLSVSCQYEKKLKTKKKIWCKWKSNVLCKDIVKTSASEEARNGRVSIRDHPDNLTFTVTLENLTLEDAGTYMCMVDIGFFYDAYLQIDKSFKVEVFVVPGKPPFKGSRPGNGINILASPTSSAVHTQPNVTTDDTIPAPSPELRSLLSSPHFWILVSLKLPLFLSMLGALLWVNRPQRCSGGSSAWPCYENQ


Tests used:
[1] = target: T1, CD300a antigen (12449-H08H, Sino …); assay: binding ELISA with CD300a antigen
Method: To identify the antigen-binding ability of the anti-CD300c monoclonal antibody produced in Example 1, binding ELISA was performed. Specifically, each of the CD300c antigen (11832-H08H, Sino Biological) or CD300a antigen (12449-H08H, Sino Biological) in a coating buffer (0.1 M sodium carbonate, pH 9.0) was dispensed onto an ELISA plate at a concentration of 8 μg/mL per well, and then reaction was allowed to proceed at room temperature for 3 hours so that the antigen was bound to the plate. Washing was performed 3 times using phosphate buffered saline-Tween 20 (PBST) to remove unbound antigen, and then 300 μL of PBST supplemented with 5% bovine serum albumin (BSA) was added to each well. Reaction was allowed to proceed at room temperature for 1 hour, and washing was performed again using PBST. Then, the anti-CD300c monoclonal antibody was diluted in quadruplicate and added thereto. Reaction was allowed to proceed for 1 hour at room temperature for antigen binding. After 1 hour, washing was performed 3 times using PBST to remove unbound anti-CD300c monoclonal antibody, and then 4 μg/mL of an antibody for detection (HRP conjugated anti-Fc IgG) was added. […] Then, 2 N sulfuric acid solution was added to terminate the development, and the absorbance was measured at 450 nm to identify the antibodies that specifically bind to the CD300c antigen. […]

mouse CD300c antigen = target: T2, mouse CD300c antigen; assay: cell-based or functional assay

Row | cancer cell proliferation inhibitory effects (CT26 mouse colorectal cancer cell line, CCK-8), higher than the control group (mouse CD300c antigen) | Binder | binding result [1]
1 | 66% | anti-CD300c monoclonal antibody CL7 (antibody, V domains shown, Full antibody from separate heavy and light chain vectors in 293T cells) VH: EVQLLESGGGLVQPGGSLRLSCAASGFTFSRYAMSWVRQAPGKGLEWVSAISGSGGSTYYADSVKGRFTISRDNSKNTLYLQMNSLRAEDTAVYYCARSSQGIFDIWGQGTLVTVSS VL: QSVLTQPPSASGTPGQRVTISCSGNNIGTRRVHWYQQLPDTAPKLLIYSKNNRPSGVPDRFSGSKSGTSASLAISGLRSEDEADYYCAAWDDSLSGPVFGGGTKLTVL | no binding (tested: 0.039, 0.63, and 10 µg/mL)
2 | 38% | anti-CD300c monoclonal antibody SL18 (antibody, V domains shown) VH: RVQLLESGGGLVQPGGSLRLSCAASGFTFSDYHMHWVRQAPGKGLEWVSTISSSGGYTYYAESVKSRFTISRDNSKNTLYLQMNSLRAEDTAVYYCARSIRLPLDYWGQGTLVTVSS VL: QSVLTQPPSASGTPGQRVTISCSGNNIGSKGVHWYQQLPGTAPKLLIYEDSKRPSGVRDRFSGSKSGTSASLAISGLRSEDEADYYCQSYDSTKGVVFGGGTKLTVL | –
3 | 15% | anti-CD300c monoclonal antibody CL10 (antibody, V domains shown) VH: EVQLLESGGGLVQPGGSLRLSCAASGFTFSSYGMHWVRQAPGKGLEWVSAISGSGGSTYYADSVKGRFTISRDNSKNTLYLQMNSLRAEDTAVYYCASGYGLMDVWGQGTLVTVSS VL: QSVLTQPPSASGTPGQRVTISCTRSSGIIASNYVQWYQQLPGTAPKLLIYRNNQRPSGVPDRFSGSKSGTSASLAISGLRSEDEADYYCSSYAGNNNLVFGGGTKLTVL | –

From US20220305082A1 (CENTRICSBIO, published 2022)
